Where no end group is shown, it is not given here.
Assays:
[1] = Stability of salts of MLA01 on storage: levels of three specific impurities (RRT 0.978, 1.072, 1.099); assay type: physicochemical
Description: (§1) The stability of MLA01 trifluoroacetate, MLA01 acetate and MLA01 hydrochloride when stored in an inert container over a four week period under different storage conditions was tested. The specific storage conditions evaluated are set out in Table 1.
(§2) Samples of each MLA01 salt were stored in inert glass containers with polypropylene twist-off caps. The samples were stored and removed at various time points for testing according to the schedule in Table 2, where X denotes removal of a sample for testing.
The levels of three specific impurities with relative retention times (RRTs) of 0.978, 1.072 and 1.099 were also measured. The impurity with an RRT of 0.978 is the impurity formed by cleavage of the terminal Cys-Pro residues from the MLA01 peptide. The impurity with an RRT of 1.072 is the cysteine sulfinic acid impurity of the MLA01 peptide. The impurity with an RRT of 1.099 is the dimer of the MLA01 peptide. The values are set out in Tables 4A to 4C below (where “<” denotes less than 0.1%).

[2] = Stability of salts of MLA01 on storage: purity by HPLC; assay type: physicochemical; conditions: for course of purity over the 4 week test period (in words): −20° C., 5° C., 25° C./60% RH, 40° C./75% RH
Description: as §1, §2
The purity of each sample was tested by HPLC. Purity was measured as area-percent, and the results are set out in Tables 3A to 3C below (where “-” denotes test not performed).

| Sequence | impurity RRT 0.978 (cleavage of the terminal Cys-Pro residues) ([1]; 0 weeks, −20° C.) [%] | impurity RRT 1.072 (cysteine sulfinic acid impurity) ([1]; 0 weeks, −20° C.) [%] | impurity RRT 1.099 (dimer of the MLA01 peptide) ([1]; 0 weeks, −20° C.) [%] | impurity RRT 0.978 (cleavage of the terminal Cys-Pro residues) ([1]; 4 weeks, 40° C./75% RH) [%] | impurity RRT 1.072 (cysteine sulfinic acid impurity) ([1]; 4 weeks, 40° C./75% RH) [%] | impurity RRT 1.099 (dimer of the MLA01 peptide) ([1]; 4 weeks, 40° C./75% RH) [%] | impurity RRT 0.978 (cleavage of the terminal Cys-Pro residues) ([1]; 4 weeks, −20° C.) [%] | impurity RRT 1.072 (cysteine sulfinic acid impurity) ([1]; 4 weeks, −20° C.) [%] | impurity RRT 1.099 (dimer of the MLA01 peptide) ([1]; 4 weeks, −20° C.) [%] | purity (HPLC) ([2]; storage 5° C., 2 weeks) [area-percent] | purity (HPLC) ([2]; storage 5° C., 4 weeks) [area-percent] | purity (HPLC) ([2]; storage 25° C./60% RH, 2 weeks) [area-percent] | purity (HPLC) ([2]; storage 25° C./60% RH, 4 weeks) [area-percent] | purity (HPLC) ([2]; storage 40° C./75% RH, 2 weeks) [area-percent] | purity (HPLC) ([2]; storage 40° C./75% RH, 4 weeks) [area-percent] | purity (HPLC) ([2]; storage −20° C., 0 weeks) [area-percent] | purity (HPLC) ([2]; storage −20° C., 2 weeks) [area-percent] | purity (HPLC) ([2]; storage −20° C., 4 weeks) [area-percent] | course of purity over the 4 week test period (in words) [2] | stability compared with other salt forms (in words) ([2]; 4 week storage, all conditions tested) |
| --- | --- | --- | --- | --- | --- | --- | --- | --- | --- | --- | --- | --- | --- | --- | --- | --- | --- | --- | --- | --- |
| CPAVKRDVDLFLT [MLA01 acetate] (also: acetate salt) | 2.0 | 2.5 | 1.6 | 17.1 | 5.9 | 12.8 | 2.3 | 2.8 | 2.5 | 82.7 | 84.2 | 75.6 | 67.2 | 54.0 | 39.4 | 90.6 | 84.5 | 88.1 | degraded under all conditions tested |  |
| CPAVKRDVDLFLT [MLA01 hydrochloride] (also: hydrochloride salt) | <0.1 | 0.1 | 0.34 | 0.2 | 0.2 | 0.6 | 0.1 | <0.1 | 0.7 | 94.0 | 95.7 | 94.3 | 95.5 | 92.4 | 95.3 | 96.6 | 94.0 | 95.6 | stayed constant | more stable than MLA01 acetate or MLA01 trifluoroacetate |
| CPAVKRDVDLFLT [MLA01 trifluoroacetate] (also: trifluoroacetate salt) | <0.1 | <0.1 | 0.3 | 0.9 | 0.2 | 2.8 | <0.1 | <0.1 | 0.6 | 95.6 | 95.2 | 94.4 | 94.5 | 91.0 | 89.4 | 96.7 | 95.9 | 95.8 | degraded at higher temperature/humidity |  |

— patent US9657061B2, “Hydrochloride salt of peptide and its use in combination with other peptides for immunotherapy” (Circassia Limited, priority 2012, dated 2017)
